Test results: US20020155121A1

What was measured:
[1] = biological target: CCR5 expressed on cells (L1.2/R5, Cf2Th-R5, U373/CD4/CCR5) (UniProt P51681); assay: flow cytometry on L1.2/R5 cells
[2] = biological target: CCR5 expressed on cells (L1.2/R5, Cf2Th-R5, U373/CD4/CCR5) (UniProt P51681); assay: cell-based or functional assay
[3] = biological target: CXCR4 expressed on cells (L1.2/X4, U373/CD4/CXCR4) (UniProt P61073); assay: cell-based or functional assay
Sequence of UniProt P61073 (P61073 whole entry): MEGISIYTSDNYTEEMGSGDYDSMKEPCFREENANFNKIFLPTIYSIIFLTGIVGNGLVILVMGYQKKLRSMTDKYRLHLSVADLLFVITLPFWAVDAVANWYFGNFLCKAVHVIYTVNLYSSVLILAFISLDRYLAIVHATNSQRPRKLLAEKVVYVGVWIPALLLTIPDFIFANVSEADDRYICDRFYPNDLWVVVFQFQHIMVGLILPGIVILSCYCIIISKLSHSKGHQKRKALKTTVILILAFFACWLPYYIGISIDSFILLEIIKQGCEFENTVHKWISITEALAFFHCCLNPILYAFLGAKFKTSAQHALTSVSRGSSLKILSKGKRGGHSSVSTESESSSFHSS

Sequence of UniProt P51681 (P51681 whole entry): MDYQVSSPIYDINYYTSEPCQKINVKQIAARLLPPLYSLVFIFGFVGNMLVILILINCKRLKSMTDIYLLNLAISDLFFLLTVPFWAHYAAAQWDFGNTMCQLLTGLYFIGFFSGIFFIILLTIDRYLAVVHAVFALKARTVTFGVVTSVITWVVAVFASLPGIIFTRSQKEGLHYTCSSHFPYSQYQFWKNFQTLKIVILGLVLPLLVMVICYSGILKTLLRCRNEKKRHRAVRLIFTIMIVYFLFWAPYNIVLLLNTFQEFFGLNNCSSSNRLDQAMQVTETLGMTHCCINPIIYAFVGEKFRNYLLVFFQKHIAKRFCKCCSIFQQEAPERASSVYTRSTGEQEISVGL

Substance “full-length single chain (FLSC) gp120-CD4 chimeric polypeptide (other; other documents disagree on this pair)” has a concentration of maximal binding [1] of 10 µg/mL.

“gp120-CD4-IgG1 chimeric polypeptide (Fc fusion)” gave an ID90 (µg/mL), neutralization of 89.6 on U373/CD4/CCR5 [2] of 3.56 µg/mL, an ID90 (µg/mL), neutralization of ADA on U373/CD4/CCR5 [2] of 4.58 µg/mL and an ID90 (µg/mL), neutralization of BaL on U373/CD4/CCR5 [2] of 3.1 µg/mL. For the same substance, the ID90 (µg/mL), neutralization of 89.6 on U373/CD4/CXCR4 [3] was over 10 µg/mL, the ID90 (µg/mL), neutralization of 2005 on U373/CD4/CXCR4 [3] was over 10 µg/mL and the ID90 (µg/mL), neutralization of 2044 on U373/CD4/CXCR4 [3] was over 10 µg/mL.

Work on “truncated single chain (TcSC) gp120-CD4 chimeric polypeptide (other; other documents disagree on this pair)” yielded a fold higher concentration than FLSC to approach saturation binding [1] of 10 fold.
